Results on 3 molecules are retold here after patent US20040110684A1 (UNIVERSITE CATHOLIQUE DE LOUVAIN, published 2004).

The chains are these.
B3: endothelial nitric oxide synthase (eNOS), endogenous, human umbilical vein endothelial cells (HUVECs) (enzyme)
chain: GNLKSVAQEPGPPCGLGLGLGLGLCGKQGPATPAPEPSRAPASLLPPAPEHSPPSSPLTQPPEGPKFPRVKNWEVGSITYDTLSAQAQQDGPCTPRRCLGSLVFPRKLQGRPSPGPPAPEQLLSQARDFINQYYSSIKRSGSQAHEQRLQEVEAEVAATGTYQLRESELVFGAKQAWRNAPRCVGRIQWGKLQVFDARDCRSAQEMFTYICNHIKYATNRGNLRSAITVFPQRCPGRGDFRIWNSQLVRYAGYRQQDGSVRGDPANVEITELCIQHGWTPGNGRFDVLPLLLQAPDDPPELFLLPPELVLEVPLEHPTLEWFAALGLRWYALPAVSNMLLEIGGLEFPAAPFSGWYMSTEIGTRNLCDPHRYNILEDVAVCMDLDTRTTSSLWKDKAAVEINVAVLHSYQLAKVTIVDHHAATASFMKHLENEQKARGGCPADWAWIVPPISGSLTPVFHQEMVNYFLSPAFRYQPDPWKGSAAKGTGITRKKTFKEVANAVKISASLMGTVMAKRVKATILYGSETGRAQSYAQQLGRLFRKAFDPRVLCMDEYDVVSLEHETLVLVVTSTFGNGDPPENGESFAAALMEMSGPYNSSPRPEQHKSYKIRFNSISCSDPLVSSWRRKRKESSNTDSAGALGTLRFCVFGLGSRAYPHFCAFARAVDTRLEELGGERLLQLGQGDELCGQEEAFRGWAQAAFQAACETFCVGEDAKAAARDIFSPKRSWKRQRYRLSAQAEGLQLLPGLIHVHRRKMFQATIRSVENLQSSKSTRATILVRLDTGGQEGLQYQPGDHIGVCPPNRPGLVEALLSRVEDPPAPTEPVAVEQLEKGSPGGPPPGWVRDPRLPPCTLRQALTFFLDITSPPSPQLLRLLSTLAEEPREQQELEALSQDPRRYEEWKWFRCPTLLEVLEQFPSVALPAPLLLTQLPLLQPRYYSVSSAPSTHPGEIHLTVAVLAYRTQDGLGPLHYGVCSTWLSQLKPGDPVPCFIRGAPSFRLPPDPSLPCILVGPGTGIAPFRGFWQERLHDIESKGLQPTPMTLVFGCRCSQLDHLYRDEVQNAQQRGVFGRVLTAFSREPDNPKTYVQDILRTELAAEVHRVLCLERGHMFVCGDVTMATNVLQTVQRILATEGDMELDEAGDVIGVLRDQQRYHEDIFGLTLRTQEVTSRIRTQSFSLQERQLRGAVPWAFDPPGSDTNSP

Test [1] deals with T1, endothelial nitric oxide synthase (eNOS), endogenous, mouse cardiac microvascular endothelial cells (CMECs) (mouse, UniProt P70313 2-1202).
T1 construct: Endogenous protein in a cell lysate, detected by co-immunoprecipitation and immunoblot; also called endothelial NO synthase
T1 sequence (looked up): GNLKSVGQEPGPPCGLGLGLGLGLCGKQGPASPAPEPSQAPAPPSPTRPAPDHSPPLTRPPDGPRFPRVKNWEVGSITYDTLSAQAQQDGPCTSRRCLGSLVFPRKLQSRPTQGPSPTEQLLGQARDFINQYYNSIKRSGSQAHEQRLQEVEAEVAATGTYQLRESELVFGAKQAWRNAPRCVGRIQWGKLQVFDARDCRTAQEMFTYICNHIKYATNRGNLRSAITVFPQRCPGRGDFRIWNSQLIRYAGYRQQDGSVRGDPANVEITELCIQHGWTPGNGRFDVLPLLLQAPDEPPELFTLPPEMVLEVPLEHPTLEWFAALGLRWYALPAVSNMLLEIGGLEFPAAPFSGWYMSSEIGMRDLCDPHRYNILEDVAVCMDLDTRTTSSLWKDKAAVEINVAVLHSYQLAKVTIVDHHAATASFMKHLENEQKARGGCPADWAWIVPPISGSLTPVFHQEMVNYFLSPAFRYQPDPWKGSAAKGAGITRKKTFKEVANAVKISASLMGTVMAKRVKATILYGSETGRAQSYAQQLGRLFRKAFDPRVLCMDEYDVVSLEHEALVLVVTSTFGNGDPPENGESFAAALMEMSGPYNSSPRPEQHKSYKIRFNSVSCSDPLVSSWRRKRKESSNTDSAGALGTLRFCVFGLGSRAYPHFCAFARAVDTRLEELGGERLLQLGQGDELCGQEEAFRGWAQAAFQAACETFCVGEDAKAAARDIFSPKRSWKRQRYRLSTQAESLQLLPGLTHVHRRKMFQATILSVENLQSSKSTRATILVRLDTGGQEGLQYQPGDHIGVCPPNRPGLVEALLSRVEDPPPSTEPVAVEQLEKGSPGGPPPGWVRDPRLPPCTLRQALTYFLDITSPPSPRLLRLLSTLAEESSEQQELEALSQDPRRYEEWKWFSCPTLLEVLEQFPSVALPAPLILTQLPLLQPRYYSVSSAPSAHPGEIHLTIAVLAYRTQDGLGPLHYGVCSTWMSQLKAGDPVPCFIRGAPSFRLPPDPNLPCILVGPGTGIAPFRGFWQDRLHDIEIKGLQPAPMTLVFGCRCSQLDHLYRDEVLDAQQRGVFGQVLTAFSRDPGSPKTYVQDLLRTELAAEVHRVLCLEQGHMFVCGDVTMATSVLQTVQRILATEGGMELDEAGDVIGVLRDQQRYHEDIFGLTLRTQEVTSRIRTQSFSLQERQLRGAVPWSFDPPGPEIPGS
Briefly: co-IP with eNOS or caveolin antibodies, immunoblot, CMEC lysates. In general terms: In western blotting, separated proteins are transferred to a membrane and probed.

Test [2] has as its target B3. Nature of the test: caveolin IP, eNOS immunoblot, HUVEC lysates.
Experimental: Following exposure to VEGF (50 ng/ml) for increasing periods of time (0, 0.5, 2, 5, and 30 min), EC were collected, lysed, and cell extracts used for immunoprecipitation as follows.
Test [3] has as its target calmodulin (CaM), endogenous, human umbilical vein endothelial cells (HUVECs) (human, UniProt P0DP23 2-149). Briefly: eNOS IP, CaM immunoblot, VEGF-treated HUVEC lysates.

B1: caveolin, endogenous, mouse cardiac microvascular endothelial cells (CMECs) (other, UniProt P49817 2-178, looked up)
chain: SGGKYVDSEGHLYTVPIREQGNIYKPNNKAMADEVTEKQVYDAHTKEIDLVNRDPKHLNDDVVKIDFEDVIAEPEGTHSFDGIWKASFTTFTVTKYWFYRLLSTIFGIPMALIWGIYFAILSFLHIWAVVPCIKSFLIEIQCISRVYSIYVHTFCDPLFEAIGKIFSNIRISTQKEI
notes: also called caveolin-1
For B1, the binding result in test [1] was “binds”.

B2: caveolin, endogenous, human umbilical vein endothelial cells (HUVECs) (other, UniProt Q03135 2-178, looked up)
chain: SGGKYVDSEGHLYTVPIREQGNIYKPNNKAMADELSEKQVYDAHTKEIDLVNRDPKHLNDDVVKIDFEDVIAEPEGTHSFDGIWKASFTTFTVTKYWFYRLLSALFGIPMALIWGIYFAILSFLHIWAVVPCIKSFLIEIQCISRVYSIYVHTVCDPLFEAVGKIFSNVRINLQKEI
notes: also called caveolin-1
Consider B2, for which, in test [2], the binding result is “binds”. B3: the binding result in test [3] is “binds”.
